According to article PMC9352680, “A comprehensive thermodynamic model for RNA binding by the Saccharomyces cerevisiae Pumilio protein PUF4”:

Molecular target: T1, PUF4 RNA-binding domain (Saccharomyces cerevisiae, UniProt P25339 537-888)
T1 sequence: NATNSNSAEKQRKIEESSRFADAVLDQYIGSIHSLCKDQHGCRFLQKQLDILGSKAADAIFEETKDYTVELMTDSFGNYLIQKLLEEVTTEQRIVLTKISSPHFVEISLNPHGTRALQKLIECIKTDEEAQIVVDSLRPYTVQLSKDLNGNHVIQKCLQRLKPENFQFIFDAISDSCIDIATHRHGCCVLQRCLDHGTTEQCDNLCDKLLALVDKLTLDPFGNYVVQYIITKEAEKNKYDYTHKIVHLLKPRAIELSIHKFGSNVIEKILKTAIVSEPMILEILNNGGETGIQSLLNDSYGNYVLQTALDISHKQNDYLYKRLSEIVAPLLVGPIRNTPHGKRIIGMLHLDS
Assay: Mg; RNA-MaP; 20 mM Na-HEPES pH 7.4, 30 mM KOAc, 0.75 mM MgCl2, 0.1% Tween-20, 5% glycerol, 0.1 mg/mL BSA, 2 mM DTT; 25 C; 0.0125-409.6 nM protein
Conditions: tags: N-His6-TEV cleaved; C-SNAP kept, Cy3B-labelled; label: tethered on chip by stalled RNA polymerase

| Binder | Kd [nM] |
| --- | --- |
| UCUCUUGGUCUAUAUCUCUU (ssRNA) [Ib_S1_P3E.1_K3.1_C3.1_H3.1_[T1G]_[A4C]_A3.1_F3.1_T3.1] | > 2300 |
| UCUCUUUGUAUGGUAAUCUCUU (ssRNA) [Ic_S1_P5E.1_K5.1_C5.1_H5.1_A5.1_[T6G]_[A7G]_F5.1_[T9A]_T5.1] | 32.1 |
| UCUCUUUGUAGUUAUUUCUCUU (ssRNA) [Ic_S1_P5E.1_K5.1_C5.1_H5.1_A5.1_[T5G]_[A7T]_F5.1_[T8A]_[A10T]_T5.1] | 705 |
| UCUCUUUGUAUUUCGUUCUCUU (ssRNA) [Ic_S1_P5E.1_K5.1_C5.1_H5.1_A5.1_[A7T]_F5.1_[T8C]_[T9G]_[A10T]_T5.1] | 370 |
| UCUCUUUGUAUGCAGUUCUCUU (ssRNA) [Ic_S1_P5E.1_K5.1_C5.1_H5.1_A5.1_[T6G]_[A7C]_F5.1_[T8A]_[T9G]_[A10T]_T5.1] | 1990 |
| UCUCUUUGUACCAUCUUCUCUU (ssRNA) [Ic_S1_P5E.1_K5.1_C5.1_H5.1_A5.1_[T5C]_[T6C]_F5.1_[T9C]_[A10T]_T5.1] | 28 |
| UCUCUUUGUACCAAACUCUCUU (ssRNA) [Ic_S1_P5E.1_K5.1_C5.1_H5.1_A5.1_[T5C]_[T6C]_F5.1_[T8A]_[T9A]_[A10C]_T5.1] | 68.1 |
| UCUCUUUGUACGGUCGUCUCUU (ssRNA) [Ic_S1_P5E.1_K5.1_C5.1_H5.1_A5.1_[T5C]_[T6G]_[A7G]_F5.1_[T9C]_[A10G]_T5.1] | > 2300 |
| UCUCUUUGUAAACUAAUCUCUU (ssRNA) [Ic_S1_P5E.1_K5.1_C5.1_H5.1_A5.1_[T5A]_[T6A]_[A7C]_F5.1_[T9A]_T5.1] | 3.01 |
| UCUCUUUGUAUGUACUUCUCUU (ssRNA) [Ic_S1_P5E.1_K5.1_C5.1_H5.1_A5.1_[T6G]_[A7T]_F5.1_[T8A]_[T9C]_[A10T]_T5.1] | 64.7 |
| UCUCUUUGUAUACGGUUCUCUU (ssRNA) [Ic_S1_P5E.1_K5.1_C5.1_H5.1_A5.1_[T6A]_[A7C]_F5.1_[T8G]_[T9G]_[A10T]_T5.1] | 90.4 |
| UCUCUUUGUAAUGGUAUCUCUU (ssRNA) [Ic_S1_P5E.1_K5.1_C5.1_H5.1_A5.1_[T5A]_[A7G]_F5.1_[T8G]_T5.1] | 45.1 |
| UCUCUUUGUAAUUUUCUCUCUU (ssRNA) [Ic_S1_P5E.1_K5.1_C5.1_H5.1_A5.1_[T5A]_[A7T]_F5.1_[A10C]_T5.1] | 29.8 |
| UCUCUUUGUACACCCCUCUCUU (ssRNA) [Ic_S1_P5E.1_K5.1_C5.1_H5.1_A5.1_[T5C]_[T6A]_[A7C]_F5.1_[T8C]_[T9C]_[A10C]_T5.1] | 113 |
| UCUCUUAGUGUAUAUCUCUU (ssRNA) [Ib_S1_P3E.1_K3.1_C3.1_H3.1_[T1A]_[A4G]_A3.1_F3.1_T3.1] | 51.9 |
| UCUCUUUGUAUUUGCGUCUCUU (ssRNA) [Ic_S1_P5E.1_K5.1_C5.1_H5.1_A5.1_[A7T]_F5.1_[T8G]_[T9C]_[A10G]_T5.1] | 659 |
| UCUCUUUGUAAUUGCCUCUCUU (ssRNA) [Ic_S1_P5E.1_K5.1_C5.1_H5.1_A5.1_[T5A]_[A7T]_F5.1_[T8G]_[T9C]_[A10C]_T5.1] | 645 |
| UCUCUUUGUACGUAAUUCUCUU (ssRNA) [Ic_S1_P5E.1_K5.1_C5.1_H5.1_A5.1_[T5C]_[T6G]_[A7T]_F5.1_[T8A]_[T9A]_[A10T]_T5.1] | 126 |
| UCUCUUUGUAUAAAUCUCUU (ssRNA) [Ia_S1_P3E.1_K3.1_C3.1_H3.1_A3.1_F3.1_[T7A]_T3.1] | 50.4 |
| UCUCUUUGUACCAGUGUCUCUU (ssRNA) [Ic_S1_P5E.1_K5.1_C5.1_H5.1_A5.1_[T5C]_[T6C]_F5.1_[T8G]_[A10G]_T5.1] | 470 |

| Binder | Kd [nM] |
| --- | --- |
| UCUCUUUGUACUUCAUUCUCUU (ssRNA) [Ic_S1_P5E.1_K5.1_C5.1_H5.1_A5.1_[T5C]_[A7T]_F5.1_[T8C]_[T9A]_[A10T]_T5.1] | 75.9 |
| UCUCUUUGUAUACCACUCUCUU (ssRNA) [Ic_S1_P5E.1_K5.1_C5.1_H5.1_A5.1_[T6A]_[A7C]_F5.1_[T8C]_[T9A]_[A10C]_T5.1] | 20.7 |
| UCUCUUUGUAUUGCCAUCUCUU (ssRNA) [Ic_S1_P5E.1_K5.1_C5.1_H5.1_A5.1_[A7G]_F5.1_[T8C]_[T9C]_T5.1] | 955 |
| UCUCUUGGCAUAUAUCUCUU (ssRNA) [Ib_S1_P3E.1_K3.1_C3.1_H3.1_[T1G]_[T3C]_A3.1_F3.1_T3.1] | > 2300 |
| UCUCUUUGUAACGACUUCUCUU (ssRNA) [Ic_S1_P5E.1_K5.1_C5.1_H5.1_A5.1_[T5A]_[T6C]_[A7G]_F5.1_[T8A]_[T9C]_[A10T]_T5.1] | > 2300 |
| UCUCUUUGUAAUCUGAUCUCUU (ssRNA) [Ic_S1_P5E.1_K5.1_C5.1_H5.1_A5.1_[T5A]_[A7C]_F5.1_[T9G]_T5.1] | 83.4 |
| UCUCUUUGUACCAUACUCUCUU (ssRNA) [Ic_S1_P5E.1_K5.1_C5.1_H5.1_A5.1_[T5C]_[T6C]_F5.1_[T9A]_[A10C]_T5.1] | 1.59 |
| UCUCUUCGUGUAUAUCUCUU (ssRNA) [Ib_S1_P3E.1_K3.1_C3.1_H3.1_[T1C]_[A4G]_A3.1_F3.1_T3.1] | 26.7 |
| UCUCUUUGUAAACUGUUCUCUU (ssRNA) [Ic_S1_P5E.1_K5.1_C5.1_H5.1_A5.1_[T5A]_[T6A]_[A7C]_F5.1_[T9G]_[A10T]_T5.1] | 12.6 |
| UCUCUUUGUAGCACUAUCUCUU (ssRNA) [Ic_S1_P5E.1_K5.1_C5.1_H5.1_A5.1_[T5G]_[T6C]_F5.1_[T8C]_T5.1] | 45.5 |
| UCUCUUUGUAAACUAUUCUCUU (ssRNA) [Ic_S1_P5E.1_K5.1_C5.1_H5.1_A5.1_[T5A]_[T6A]_[A7C]_F5.1_[T9A]_[A10T]_T5.1] | 2.36 |
| UCUCUUUGUACGUCAUUCUCUU (ssRNA) [Ic_S1_P5E.1_K5.1_C5.1_H5.1_A5.1_[T5C]_[T6G]_[A7T]_F5.1_[T8C]_[T9A]_[A10T]_T5.1] | 96.5 |
| UCUCUUUGUACUUCGUUCUCUU (ssRNA) [Ic_S1_P5E.1_K5.1_C5.1_H5.1_A5.1_[T5C]_[A7T]_F5.1_[T8C]_[T9G]_[A10T]_T5.1] | 352 |
| UCUCUUUGUAAAACGGUCUCUU (ssRNA) [Ic_S1_P5E.1_K5.1_C5.1_H5.1_A5.1_[T5A]_[T6A]_F5.1_[T8C]_[T9G]_[A10G]_T5.1] | 625 |
| UCUCUUUGUAAGUUGUUCUCUU (ssRNA) [Ic_S1_P5E.1_K5.1_C5.1_H5.1_A5.1_[T5A]_[T6G]_[A7T]_F5.1_[T9G]_[A10T]_T5.1] | 495 |
| UCUCUUUGUAUUUGCCUCUCUU (ssRNA) [Ic_S1_P5E.1_K5.1_C5.1_H5.1_A5.1_[A7T]_F5.1_[T8G]_[T9C]_[A10C]_T5.1] | 568 |
| UCUCUUUGUAACGGUCUCUCUU (ssRNA) [Ic_S1_P5E.1_K5.1_C5.1_H5.1_A5.1_[T5A]_[T6C]_[A7G]_F5.1_[T8G]_[A10C]_T5.1] | > 2300 |
| UCUCUUUGUAUCUAUCUCUCUU (ssRNA) [Ic_S1_P5E.1_K5.1_C5.1_H5.1_A5.1_[T6C]_[A7T]_F5.1_[T8A]_[A10C]_T5.1] | 41.5 |
| UCUCUUUGUAAGCUGCUCUCUU (ssRNA) [Ic_S1_P5E.1_K5.1_C5.1_H5.1_A5.1_[T5A]_[T6G]_[A7C]_F5.1_[T9G]_[A10C]_T5.1] | 604 |
| UCUCUUUGUAACCCAUUCUCUU (ssRNA) [Ic_S1_P5E.1_K5.1_C5.1_H5.1_A5.1_[T5A]_[T6C]_[A7C]_F5.1_[T8C]_[T9A]_[A10T]_T5.1] | 711 |

| Binder | Kd [nM] |
| --- | --- |
| UCUCUUUGUACCAUUUUCUCUU (ssRNA) [Ic_S1_P5E.1_K5.1_C5.1_H5.1_A5.1_[T5C]_[T6C]_F5.1_[A10T]_T5.1] | 7.08 |
| UCUCUUUGUAACAGCCUCUCUU (ssRNA) [Ic_S1_P5E.1_K5.1_C5.1_H5.1_A5.1_[T5A]_[T6C]_F5.1_[T8G]_[T9C]_[A10C]_T5.1] | 1140 |
| UCUCUUUGUACAAUUCUCUCUU (ssRNA) [Ic_S1_P5E.1_K5.1_C5.1_H5.1_A5.1_[T5C]_[T6A]_F5.1_[A10C]_T5.1] | 12.1 |
| UCUCUUAGCAUAUAUCUCUU (ssRNA) [Ib_S1_P3E.1_K3.1_C3.1_H3.1_[T1A]_[T3C]_A3.1_F3.1_T3.1] | > 2300 |
| UCUCUUUGUAUAUCAUCUCUU (ssRNA) [Ic_S1_P4E.1_K4.1_C4.1_H4.1_A4.1_F4.1_[T8C]_T4.1] | 8.57 |
| UCUCUUUGUAAGUAACUCUCUU (ssRNA) [Ic_S1_P5E.1_K5.1_C5.1_H5.1_A5.1_[T5A]_[T6G]_[A7T]_F5.1_[T8A]_[T9A]_[A10C]_T5.1] | > 2300 |
| UCUCUUUGUACCCUAGUCUCUU (ssRNA) [Ic_S1_P5E.1_K5.1_C5.1_H5.1_A5.1_[T5C]_[T6C]_[A7C]_F5.1_[T9A]_[A10G]_T5.1] | 4.32 |
| UCUCUUUGUAUUUAAUUCUCUU (ssRNA) [Ic_S1_P5E.1_K5.1_C5.1_H5.1_A5.1_[A7T]_F5.1_[T8A]_[T9A]_[A10T]_T5.1] | 46.2 |
| UCUCUUUGUAUACUACUCUCUU (ssRNA) [Ic_S1_P5E.1_K5.1_C5.1_H5.1_A5.1_[T6A]_[A7C]_F5.1_[T9A]_[A10C]_T5.1] | 2.89 |
| UCUCUUUGUACCAGCUUCUCUU (ssRNA) [Ic_S1_P5E.1_K5.1_C5.1_H5.1_A5.1_[T5C]_[T6C]_F5.1_[T8G]_[T9C]_[A10T]_T5.1] | 747 |
| UCUCUUUGUAAAACCGUCUCUU (ssRNA) [Ic_S1_P5E.1_K5.1_C5.1_H5.1_A5.1_[T5A]_[T6A]_F5.1_[T8C]_[T9C]_[A10G]_T5.1] | 1190 |
| UCUCUUUGUACACCAUUCUCUU (ssRNA) [Ic_S1_P5E.1_K5.1_C5.1_H5.1_A5.1_[T5C]_[T6A]_[A7C]_F5.1_[T8C]_[T9A]_[A10T]_T5.1] | 16.1 |
| UCUCUUUGUACCUUGGUCUCUU (ssRNA) [Ic_S1_P5E.1_K5.1_C5.1_H5.1_A5.1_[T5C]_[T6C]_[A7T]_F5.1_[T9G]_[A10G]_T5.1] | 103 |
| UCUCUUUGUAAUAUAUUCUCUU (ssRNA) [Ic_S1_P5E.1_K5.1_C5.1_H5.1_A5.1_[T5A]_F5.1_[T9A]_[A10T]_T5.1] | 2.21 |
| UCUCUUUGUAAACUUUUCUCUU (ssRNA) [Ic_S1_P5E.1_K5.1_C5.1_H5.1_A5.1_[T5A]_[T6A]_[A7C]_F5.1_[A10T]_T5.1] | 37.5 |
| UCUCUUGUUAUAUAUCUCUU (ssRNA) [Ib_S1_P3E.1_K3.1_C3.1_H3.1_[T1G]_[G2T]_A3.1_F3.1_T3.1] | 47 |
| UCUCUUUGUAUACCCUUCUCUU (ssRNA) [Ic_S1_P5E.1_K5.1_C5.1_H5.1_A5.1_[T6A]_[A7C]_F5.1_[T8C]_[T9C]_[A10T]_T5.1] | 103 |
| UCUCUUUGUAGUAUAUUCUCUU (ssRNA) [Ic_S1_P5E.1_K5.1_C5.1_H5.1_A5.1_[T5G]_F5.1_[T9A]_[A10T]_T5.1] | 8.21 |
| UCUCUUUGUACAGCAUUCUCUU (ssRNA) [Ic_S1_P5E.1_K5.1_C5.1_H5.1_A5.1_[T5C]_[T6A]_[A7G]_F5.1_[T8C]_[T9A]_[A10T]_T5.1] | 23.4 |
